Target: T1, heat shock factor 1 (human (endogenous in HepG2)), Q00613
T1 chain: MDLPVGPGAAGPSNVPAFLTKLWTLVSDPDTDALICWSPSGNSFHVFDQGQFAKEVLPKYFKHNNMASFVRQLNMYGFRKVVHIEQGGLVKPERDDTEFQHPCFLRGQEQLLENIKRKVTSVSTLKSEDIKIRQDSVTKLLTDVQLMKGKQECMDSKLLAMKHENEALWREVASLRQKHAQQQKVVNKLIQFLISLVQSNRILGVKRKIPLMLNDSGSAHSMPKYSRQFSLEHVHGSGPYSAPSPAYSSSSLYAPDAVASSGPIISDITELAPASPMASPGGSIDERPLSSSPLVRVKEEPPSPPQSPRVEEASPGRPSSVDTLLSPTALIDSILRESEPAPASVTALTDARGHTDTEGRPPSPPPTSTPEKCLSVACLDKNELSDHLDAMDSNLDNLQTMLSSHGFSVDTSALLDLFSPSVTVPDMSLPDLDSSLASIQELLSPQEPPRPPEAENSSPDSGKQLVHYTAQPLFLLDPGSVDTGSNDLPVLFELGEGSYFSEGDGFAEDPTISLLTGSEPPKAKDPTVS
Experiment: cross-linking
Details: remark: other sources report otherwise

- stoichiometry N: 3
B1: heat shock factor 1, Q00613 1-529 (natural protein)
chain: T1 chain

Reference: article PMC2950225
